The target in data set [1] is MapSPARTA (binary complex of TIR-APAZ and Ago), wild type (Maribacter polysiphoniae). Description: cryo-EM structure.
Data set [2] shares this target. As to the kind of experiment: cryo-EM structure. This is another data set of the same source.
Data set [3] shares this target. Description: SEC.
For data set [4] the target is unchanged. As to the kind of experiment: cryo-EM structure. The source holds these as a separate data set.
In data set [5] the target is MapSPARTA V113R/D106R/D111R (TIR-APAZ triple mutant with Ago) (Maribacter polysiphoniae). Description: SEC.
The target in data set [6] is MapSPARTA V113R (TIR-APAZ V113R with Ago) (Maribacter polysiphoniae). As to the kind of experiment: SEC.
Data set [7] deals with T1, MapSPARTA WT (Ago + TIR-APAZ) (Maribacter polysiphoniae, UniProt A0A316E3U6;A0A316E683 1-507;1-450).
T1 sequence 1: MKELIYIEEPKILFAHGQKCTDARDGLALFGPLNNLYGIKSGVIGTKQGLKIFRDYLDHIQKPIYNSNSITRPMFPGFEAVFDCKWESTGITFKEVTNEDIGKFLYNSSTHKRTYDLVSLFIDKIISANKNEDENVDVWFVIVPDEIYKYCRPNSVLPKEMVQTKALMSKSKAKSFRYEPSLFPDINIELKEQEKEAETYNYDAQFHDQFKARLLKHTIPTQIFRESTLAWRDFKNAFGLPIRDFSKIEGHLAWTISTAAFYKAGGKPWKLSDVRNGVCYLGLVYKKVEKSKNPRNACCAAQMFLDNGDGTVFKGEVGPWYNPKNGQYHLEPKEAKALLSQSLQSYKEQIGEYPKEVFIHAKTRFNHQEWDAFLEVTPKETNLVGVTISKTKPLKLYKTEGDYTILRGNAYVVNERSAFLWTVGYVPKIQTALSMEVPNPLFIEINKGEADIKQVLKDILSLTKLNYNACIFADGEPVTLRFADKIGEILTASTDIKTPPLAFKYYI
T1 sequence 2: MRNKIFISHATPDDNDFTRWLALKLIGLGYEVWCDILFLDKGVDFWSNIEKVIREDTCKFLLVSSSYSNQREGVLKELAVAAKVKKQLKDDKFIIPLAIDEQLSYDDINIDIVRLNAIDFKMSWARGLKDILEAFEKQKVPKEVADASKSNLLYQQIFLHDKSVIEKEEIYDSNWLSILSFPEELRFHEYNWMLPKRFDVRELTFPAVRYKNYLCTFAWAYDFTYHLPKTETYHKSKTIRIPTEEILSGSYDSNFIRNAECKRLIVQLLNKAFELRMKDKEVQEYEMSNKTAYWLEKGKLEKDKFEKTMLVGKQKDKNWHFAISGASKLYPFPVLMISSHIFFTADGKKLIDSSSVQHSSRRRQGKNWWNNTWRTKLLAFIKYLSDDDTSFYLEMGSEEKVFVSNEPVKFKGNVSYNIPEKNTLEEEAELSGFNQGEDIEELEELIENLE
Description: BLI.

For “MapSPARTA (binary complex of TIR-APAZ and Ago), wild type”, the stoichiometry N in data set [1] stood at 4; in data set [2], 4; in data set [3] it was 4; in data set [4] it was 2.
In data set [5], “MapSPARTA V113R/D106R/D111R (TIR-APAZ triple mutant with Ago) (complex)” came in with a stoichiometry N of 2.
For the molecule “MapSPARTA V113R (TIR-APAZ V113R with Ago) (complex)”, the stoichiometry N in data set [6] turned out to be 2.

B1: guide RNA + biotinylated target DNA (BLI) (DNA:RNA)
RNA: UGACGGCUCUAAUCUAUUAGU
DNA: CAACTAATAGATTAGAGCCGTCAAT
modifications: 5'-phosphate on guide RNA
Turning to B1, the Kd in data set [7] amounted to 13.5 nM.

These data come from paper PMC11332595.
